Experimental data from patent US20110274691A1 (Amgen, published 2011).
Substitutions are numbered along the chain they refer to. Blank lines part the entries; values can stand above or below the binder they belong to.

Assays:
human ferroportin = biological target: T1, human ferroportin (human, UniProt Q9NP59 1-571); assay: cell-based or functional assay
T1 sequence: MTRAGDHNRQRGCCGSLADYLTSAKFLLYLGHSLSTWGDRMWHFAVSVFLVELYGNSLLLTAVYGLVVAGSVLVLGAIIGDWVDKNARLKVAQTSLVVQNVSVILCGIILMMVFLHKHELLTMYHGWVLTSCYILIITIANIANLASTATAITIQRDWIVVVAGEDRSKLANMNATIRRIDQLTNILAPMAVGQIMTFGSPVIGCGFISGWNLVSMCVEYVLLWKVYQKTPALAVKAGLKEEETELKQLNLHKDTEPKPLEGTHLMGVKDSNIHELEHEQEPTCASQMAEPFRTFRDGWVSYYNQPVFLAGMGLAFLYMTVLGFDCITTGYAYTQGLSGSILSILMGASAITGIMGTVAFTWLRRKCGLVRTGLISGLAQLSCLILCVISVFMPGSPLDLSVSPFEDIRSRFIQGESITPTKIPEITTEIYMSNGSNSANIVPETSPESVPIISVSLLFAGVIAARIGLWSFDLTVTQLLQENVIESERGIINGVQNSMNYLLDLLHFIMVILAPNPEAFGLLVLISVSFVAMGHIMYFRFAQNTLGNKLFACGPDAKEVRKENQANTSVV

[1] = biological target: T2, ferroportin fragment AFLYMTVLGF (amino acids 315-324 of SEQ ID NO: 16) (human); assay: PepSpot peptide array, 1 ug/mL antibody
T2 construct: PepSpot array of overlapping 10-mers on cellulose membrane
T2 peptide: AFLYMTVLGF
Source text: (§1) The PepSpot technique (Heiskanen et al., Virology, 262:321-332, 1999) was used to identify the binding epitopes on ferroportin for human antibodies 37A2, 37B9, 37C8, 37G8, 38A4, 38C8, 38D2, 38E3 and 38G6. Briefly, an array of overlapping 10-mer peptides was synthesized on a cellulose membrane by a solid phase peptide synthesis spotting method. These peptide sequences were derived from amino acids 1-571 of SEQ ID NO: 16. The array was then soaked in 0.05% Tween-20/PBS (PBS-T), blocked with 5% BSA in PBS-T for 3 hours at room temperature and subsequently washed three times with PBS-T. The prepared array was then incubated for 90 minutes at room temperature with 1 μg/mL solution of antibodies 37A2, 37B9, 37C8, 37G8, 38A4, 38C8, 38D2, 38E3 or 38G6 in 5% nonfat dry milk. After binding, the membrane was washed three times with PBS-T and subsequently incubated for 1 hour at room temperature with a goat anti-human light chain antibody conjugated to horseradish peroxidase diluted 1:50,000 in 5% nonfat dry milk. The membrane was then washed three times with PBS-T and any binding was determined using chemiluminescence detection on X-ray film.
(§2) Antibodies 37A2, 37B9, 37C8, 37G8, 38A4, 38C8, 38D2, 38E3 and 38G6 bound to epitopes within, overlapping or near loops 1, 2, 3 and 4 of the ferroportin sequence set forth in FIG. 1A.

ferroportin-V5 = biological target: T3, ferroportin-V5 (human, UniProt Q9NP59 1-571); assay: cell-based or functional assay
T3 sequence: T1 sequence

[2] = biological target: T4, ferroportin peptide sequence ANIVPETSPES (residues 439-449 of SEQ ID NO: 16) (human); assay: binding to 7-10 amino acid peptides immobilized on cellulose membrane
T4 peptide: ANIVPETSPES
Source text: None of the other ferroportin-binding antibodies bound appreciably to this peptide. The location of the 31A5 epitope was further narrowed by detecting binding to ferroportin peptides ranging in length from 7 to 10 amino acids immobilized on a cellulose membrane. […] Cysteine residue 326 of SEQ ID NO: 16 is located in a different extracellular loop from the loop containing the 31A5 epitope (i.e., loop 3 of FIG. 1A).

[3] = biological target: T5, ferroportin peptide Fc conjugate 5 (Peptide 5: AQNTLGNKLFACGPDAKEVRKENQANTSVV, amino acids 542-571 of SEQ ID … (human)); assay: Western blot of peptide-Fc conjugates
T5 construct: not shown: Fc moiety
T5 chain: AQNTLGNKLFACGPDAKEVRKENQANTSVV
Protocol: (§3) 31A5 was then tested by Western analysis for its ability to recognize a panel of ferroportin peptide-Fc conjugates, where the peptide moiety was derived from different, non-overlapping regions of the ferroportin sequence. 500 ng of ferroportin peptide Fc conjugates 1-5 (Peptide 1: […], amino acids 75-96 of SEQ ID NO: 16; Peptide 2: […], amino acids 152-183 of SEQ ID NO: 16; Peptide 3: […], amino acids 330-338 of SEQ ID NO: 16; Peptide 4: […], amino acids 393-446 of SEQ ID NO: 16; and Peptide 5: […], amino acids: 542-571 of SEQ ID NO: 16) were run on a NuPAGE 4-12% gel, transferred to a nitrocellulose membrane and probed using […] 31A5 followed by an anti-mouse secondary antibody.

[4] = biological target: T6, ferroportin peptide Fc conjugate 2 (Peptide 2: ITIQRDWIVVVAGEDRSKLANMNATIRRIDQL, amino acids 152-183 of SEQ … (human)); assay: Western blot of peptide-Fc conjugates
T6 construct: not shown: Fc moiety
T6 chain: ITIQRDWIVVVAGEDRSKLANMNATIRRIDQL
Protocol: as §3

[5] = biological target: T7, ferroportin fragment ITTEIYMSNGSNS (amino acids 426-438 of SEQ ID NO: 16) (human); assay: PepSpot peptide array, 1 ug/mL antibody
T7 construct: Stretch covered by several overlapping 10-mers of the PepSpot array; 13 residues as printed
T7 peptide: ITTEIYMSNGSNS
Source text: as §1, §2

[6] = biological target: T8, ferroportin fragment SITPTKIPEI (amino acids 417-426 of SEQ ID NO: 16) (human); assay: PepSpot peptide array, 1 ug/mL antibody
T8 construct: PepSpot array of overlapping 10-mers on cellulose membrane
T8 peptide: SITPTKIPEI
Source text: as §1, §2

[7] = biological target: T9, ferroportin fragment YHGWVLTSCY (amino acids 124-133 of SEQ ID NO: 16) (human); assay: PepSpot peptide array, 1 ug/mL antibody
T9 construct: PepSpot array of overlapping 10-mers on cellulose membrane
T9 peptide: YHGWVLTSCY
Source text: as §1, §2

[8] = biological target: T10, ferroportin fragment RDGWVSYYNQ (amino acids 296-305 of SEQ ID NO: 16) (human); assay: PepSpot peptide array, 1 ug/mL antibody
T10 construct: PepSpot array of overlapping 10-mers on cellulose membrane
T10 peptide: RDGWVSYYNQ
Source text: as §1, §2

[9] = biological target: T11, ferroportin fragment TEIYMSNGSNSA (amino acids 428-439 of SEQ ID NO: 16) (human); assay: PepSpot peptide array, 1 ug/mL antibody
T11 construct: Stretch covered by several overlapping 10-mers of the PepSpot array; 12 residues as printed
T11 peptide: TEIYMSNGSNSA
Source text: as §1, §2

- decreased intracellular concentration of iron (IRE beta-lactamase reporter, 293/Fpn/BLA cells, 36 nM hepcidin), IC50 (human ferroportin): 0.8 nM
- preserved ferroportin activity (ferroportin-V5 fluorescence after 37 nM hepcidin), IC50 (ferroportin-V5): 0.2 nM
- binding result [1]: binds
B3: antibody 37C8 (antibody, V domains shown)
VH: QVQLVQSGAEVKKPGSSVKVSCKASGYTLTGYYMHWVRQAPGQGLEWMGWINPHTGGKNYAQKFQGRVTLTRDTSINTAYMELNTLRSDDTAVYYCARDPSIAVAGPSFYYYGLDVWGQGTTVTVSS
VL: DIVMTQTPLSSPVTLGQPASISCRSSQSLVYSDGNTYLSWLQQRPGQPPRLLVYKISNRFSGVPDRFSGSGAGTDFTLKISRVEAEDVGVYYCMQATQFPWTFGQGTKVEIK

- decreased intracellular concentration of iron (IRE beta-lactamase reporter, 293/Fpn/BLA cells, 36 nM hepcidin), IC50 (human ferroportin): 0.4 nM
- preserved ferroportin activity (ferroportin-V5 fluorescence after 37 nM hepcidin), IC50 (ferroportin-V5): 2.8 nM
- binding result [5]: binds
B7: antibody 38A4 (antibody, V domains shown)
VH: EVQLLESGGGLVQPGGSLRLSCAASGFTFSSFAMTWVRQAPGKGLEWVSAIGGSGRNTYYADSVKGRFTISRDNSKNTLYLQMSSLRAEDTAVYYCAKEGAMARPPRGLDVWGQGTTVTVSS
VL: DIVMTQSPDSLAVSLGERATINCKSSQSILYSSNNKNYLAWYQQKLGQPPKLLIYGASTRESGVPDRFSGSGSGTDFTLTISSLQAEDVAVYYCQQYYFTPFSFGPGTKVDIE

- decreased intracellular concentration of iron (IRE beta-lactamase reporter, 293/Fpn/BLA cells, 36 nM hepcidin), IC50 (human ferroportin): 4.5 nM
- preserved ferroportin activity (ferroportin-V5 fluorescence after 37 nM hepcidin), IC50 (ferroportin-V5): 2.5 nM
- binding result [6]: binds
B8: antibody 37A2 (antibody, V domains shown)
VH: QVQLVESGGGVVQPGRSLRLSCAASGFTFSGYGMHWVRQAPGRGLEWVAVIWPDGTNKYYADSVKGRFTISRDNSKNKLYLQMNSLRAEDTAVYYCARGGATAVFGMNVWGQGTTVTVSS
VL: SYELTQPPSVSVSPGQTARITCSGDELPKQYAYWYQQKAGQAPVMVIHKDSERPSGIPERFSGSSAGTIVTLTISGVQAEDEADYYCQSPDSRRTVIFGGGTKLTVL

- decreased intracellular concentration of iron (IRE beta-lactamase reporter, 293/Fpn/BLA cells, 36 nM hepcidin), IC50 (human ferroportin): 4.3 nM
- preserved ferroportin activity (ferroportin-V5 fluorescence after 37 nM hepcidin), IC50 (ferroportin-V5): 1.9 nM
- binding result [9]: binds
B10: antibody 38G6 (antibody, V domains shown)
VH: EVQVVESGGGLVQPGGSLRLSCAASGFTFSSYSVNWVRQAPGKGLEWVSYISGSSSTVHYADSVKGRFTISRDTAKNSVYLQLNSLRDEDTALYYCARWGTRQGHYFGMDVWGQGTTVTVSS
VL: QPVLTQPPSASASLGASVTLTCTLSSGYNNYKVDWFQQRPGRGPRFVMRVGTGGIVGSKGDGIPDRFSVLGSGLNRYLTIKNIQEEDESDYHCGADHASGNNFVYVFGTGTKVTVL

Continued, binder first:

B1: antibody 38E3 (antibody, V domains shown)
VH: B3 VH with N77S, T85S, I102L, A103S, A105T
VL: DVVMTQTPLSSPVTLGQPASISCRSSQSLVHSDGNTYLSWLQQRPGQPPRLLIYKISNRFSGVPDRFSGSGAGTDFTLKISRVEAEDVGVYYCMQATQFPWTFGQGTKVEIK
- decreased intracellular concentration of iron (IRE beta-lactamase reporter, 293/Fpn/BLA cells, 36 nM hepcidin), IC50 (human ferroportin): 15 nM
- binding result [1]: binds

B2: antibody 37B9 (antibody, V domains shown)
VH: B3 VH with K63R, I76V, I102L, A103V, A105T
VL: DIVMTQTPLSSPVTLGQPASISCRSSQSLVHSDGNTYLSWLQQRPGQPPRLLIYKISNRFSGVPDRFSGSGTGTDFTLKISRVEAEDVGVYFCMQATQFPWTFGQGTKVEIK
- decreased intracellular concentration of iron (IRE beta-lactamase reporter, 293/Fpn/BLA cells, 36 nM hepcidin), IC50 (human ferroportin): 3.6 nM
- preserved ferroportin activity (ferroportin-V5 fluorescence after 37 nM hepcidin), IC50 (ferroportin-V5): 0.2 nM
- binding result [1]: binds

B4: antibody 37G8 (antibody, V domains shown)
VH: B3 VH with I102L, A103V, A105T
VL: DIVMTQTPLSSPVTHGQPASISCRSSQSLVHSDGNTYLSWLQQRPGQPPRLLIYKISNRLSGVPDRFSGSGTGTDFTLKISRVEAEDVGVYVCMQATQFPWTFGQGTKVEIK
- decreased intracellular concentration of iron (IRE beta-lactamase reporter, 293/Fpn/BLA cells, 36 nM hepcidin), IC50 (human ferroportin): 1.6 nM
- preserved ferroportin activity (ferroportin-V5 fluorescence after 37 nM hepcidin), IC50 (ferroportin-V5): 0.8 nM
- binding result [1]: binds

B5: antibody 38C8 (antibody, V domains shown)
VH: B3 VH with A61G, T85S, A103S, Y112F
VL: not shown
- decreased intracellular concentration of iron (IRE beta-lactamase reporter, 293/Fpn/BLA cells, 36 nM hepcidin), IC50 (human ferroportin): 0.9 nM
- preserved ferroportin activity (ferroportin-V5 fluorescence after 37 nM hepcidin), IC50 (ferroportin-V5): 0.3 nM
- binding result [1]: binds

B6: anti-ferroportin antibody 31A5 (antibody, V domains shown)
VH: QVQLQQSGAELARPGASVKLSCKASGYTFTSYGISWVKQRTGQGLEWIGEIYPRSGNAYYNEKFKVKATLTIDKSSSTAYMELRSLTSEDSAVYFCGGNYYWGQGTTLTVSS
VL: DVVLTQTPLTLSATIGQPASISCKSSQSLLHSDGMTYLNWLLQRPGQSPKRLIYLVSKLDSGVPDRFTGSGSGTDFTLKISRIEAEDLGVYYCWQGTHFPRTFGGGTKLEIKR
notes: the ends of the mature chains (466, 239) are printed in CLM-00028; also called monoclonal 31A5; mouse anti-human ferroportin antibody
- binding result [2]: binds
- decreased intracellular concentration of iron (IRE beta-lactamase reporter, 293/Fpn/BLA cells, 36 nM hepcidin), IC50 (human ferroportin): 30 nM
- binding result [3]: no binding
- binding result [4]: no binding

B9: antibody 38D2 (antibody, V domains shown)
VH: QVQLVQSGAEVKKPGASVKVSCKASGYTLTGYYLHWVRQAPGQELEWMGWINPFTGATDYAQKFQGRVTMTRDTSINTAHMELSRLRSDDTAVYYCARDPSLQNSYHYYVMDVWGQGTTVTVSS
VL: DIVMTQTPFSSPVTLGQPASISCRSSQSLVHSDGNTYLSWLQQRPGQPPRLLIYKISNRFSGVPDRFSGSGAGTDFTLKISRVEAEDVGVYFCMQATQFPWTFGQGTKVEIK
- decreased intracellular concentration of iron (IRE beta-lactamase reporter, 293/Fpn/BLA cells, 36 nM hepcidin), IC50 (human ferroportin): 10 nM
- preserved ferroportin activity (ferroportin-V5 fluorescence after 37 nM hepcidin), IC50 (ferroportin-V5): 5.4 nM
- binding result [7]: binds
- binding result [8]: binds
